Results as given in US20230348603A1 (VERSEAU THERAPEUTICS, published 2023).
One block for each binder: values may come before it.

Tests used:
Human VSIG4-L-Fc [1] = target: T1, Human VSIG4-L-Fc (human); assay: ELISA, IgG 50 nM on coated antigen;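 note: Mouse-human chimeric IgG4 antibodies incubated 1 h on plate-coated VSIG4 proteins, bound IgG detected with HRP-labelled anti-human IgG, irrelevant antibody and protein as specificity controls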
T1 construct: also called hVSIG4-L-Fc; hVSIG4-L

[2] = target: T2, Cynomolgus Monkey VSIG4-L-His (cynomolgus monkey); assay: ELISA, IgG 50 nM on coated antigen;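 note: Mouse-human chimeric IgG4 antibodies incubated 1 h on plate-coated VSIG4 proteins, bound IgG detected with HRP-labelled anti-human IgG, irrelevant antibody and protein as specificity controls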
T2 construct: ECD with His tag; also called cyVSIG4-L; cyno VSIG4-L-His
T2 chain: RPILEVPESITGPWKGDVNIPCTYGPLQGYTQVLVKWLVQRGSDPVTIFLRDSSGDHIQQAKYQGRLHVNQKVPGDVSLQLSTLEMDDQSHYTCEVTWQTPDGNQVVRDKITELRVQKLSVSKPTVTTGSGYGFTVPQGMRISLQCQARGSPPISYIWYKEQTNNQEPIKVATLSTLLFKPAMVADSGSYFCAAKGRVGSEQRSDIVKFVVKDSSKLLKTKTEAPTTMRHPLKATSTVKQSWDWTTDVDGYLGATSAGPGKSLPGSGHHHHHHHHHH

Mouse VSIG4-His = target: T3, Mouse VSIG4-His (mouse); assay: ELISA, IgG 50 nM on coated antigen;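 note: Mouse-human chimeric IgG4 antibodies incubated 1 h on plate-coated VSIG4 proteins, bound IgG detected with HRP-labelled anti-human IgG, irrelevant antibody and protein as specificity controls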
T3 construct: ECD with His tag; also called mVSIG4
T3 chain: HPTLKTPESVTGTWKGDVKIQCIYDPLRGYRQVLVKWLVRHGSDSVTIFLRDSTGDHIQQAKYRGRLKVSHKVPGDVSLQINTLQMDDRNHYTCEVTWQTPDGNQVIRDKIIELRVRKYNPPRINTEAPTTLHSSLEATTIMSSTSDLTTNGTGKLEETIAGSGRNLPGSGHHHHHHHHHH

Human VSIG4-S-Fc = target: T4, Human VSIG4-S-Fc (human); assay: ELISA, IgG 50 nM on coated antigen;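 note: Mouse-human chimeric IgG4 antibodies incubated 1 h on plate-coated VSIG4 proteins, bound IgG detected with HRP-labelled anti-human IgG, irrelevant antibody and protein as specificity controls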
T4 construct: short isoform ECD fused to human Fc1; also called hVSIG4-S

[3] = target: T5, Human VSIG4-L-CHO (human VSIG4 long isoform on CHO-K1 cells) (human, UniProt Q9Y279 20-399); assay: flow cytometry, CHO-K1 cells expressing hVSIG4-L
T5 construct: also called hVSIG4-L (flow cytometry)
T5 sequence: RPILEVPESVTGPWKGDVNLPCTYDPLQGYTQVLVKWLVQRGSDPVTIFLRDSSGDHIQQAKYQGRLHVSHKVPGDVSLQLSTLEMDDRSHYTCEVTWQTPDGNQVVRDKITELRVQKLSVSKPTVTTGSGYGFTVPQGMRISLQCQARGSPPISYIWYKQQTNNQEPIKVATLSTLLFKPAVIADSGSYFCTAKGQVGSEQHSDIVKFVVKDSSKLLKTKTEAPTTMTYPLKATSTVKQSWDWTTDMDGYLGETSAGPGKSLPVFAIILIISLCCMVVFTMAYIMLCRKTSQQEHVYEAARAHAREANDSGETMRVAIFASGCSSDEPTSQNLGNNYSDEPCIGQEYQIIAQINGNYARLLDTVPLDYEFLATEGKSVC

Human VSIG4-L-Fc [4] = target: T1, Human VSIG4-L-Fc; assay: BLI binning on hVSIG4-L-Fc, competitor 13H11 first;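 note: normalized to binding of second antibody without first competitor antibody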
Human VSIG4-L-Fc [5] = target: T1, Human VSIG4-L-Fc; assay: BLI binning on hVSIG4-L-Fc, competitor 14D12 first;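 note: normalized to binding of second antibody without first competitor antibody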
Human VSIG4-L-Fc [6] = target: T1, Human VSIG4-L-Fc; assay: BLI binning on hVSIG4-L-Fc, competitor 15A06 first;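 note: normalized to binding of second antibody without first competitor antibody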
Human VSIG4-L-Fc [7] = target: T1, Human VSIG4-L-Fc; assay: ligand blocking of C3b, IgG
Human VSIG4-L-Fc [8] = target: T1, Human VSIG4-L-Fc; assay: BLI binning on hVSIG4-L-Fc, competitor 14C05 first;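 note: normalized to binding of second antibody without first competitor antibody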
[9] = target: T5, Human VSIG4-L-CHO (human VSIG4 long …); assay: flow cytometry (FJB), 200 nM mAb, huVSIG4-L CHO-K1 cells
Human VSIG4-L-Fc [10] = target: T1, Human VSIG4-L-Fc; assay: BLI binning on hVSIG4-L-Fc, competitor 15C03 first;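 note: normalized to binding of second antibody without first competitor antibody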
[11] = target: T5, Human VSIG4-L-CHO (human VSIG4 long …); assay: flow cytometry (FJB), 200 nM mAb, huVSIG4-L CHO-K1 over parental CHO-K1
Human VSIG4-L-Fc [12] = target: T1, Human VSIG4-L-Fc; assay: BLI binning on hVSIG4-L-Fc, competitor 16E10 first;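 note: normalized to binding of second antibody without first competitor antibody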
Human VSIG4-L-Fc [13] = target: T1, Human VSIG4-L-Fc; assay: ligand competition ELISA (FJB), blocked ligand C3b
Human VSIG4-L-Fc [14] = target: T1, Human VSIG4-L-Fc; assay: ligand blocking of iC3b, IgG
[15] = target: T2, Cynomolgus Monkey VSIG4-L-His; assay: SPR (FJB)
Human VSIG4-L-His [16] = target: T6, Human VSIG4-L-His (human, UniProt Q9Y279 20-283); assay: SPR (FJB)
T6 construct: long isoform ECD with His tag; also called hVSIG4-L
T6 sequence: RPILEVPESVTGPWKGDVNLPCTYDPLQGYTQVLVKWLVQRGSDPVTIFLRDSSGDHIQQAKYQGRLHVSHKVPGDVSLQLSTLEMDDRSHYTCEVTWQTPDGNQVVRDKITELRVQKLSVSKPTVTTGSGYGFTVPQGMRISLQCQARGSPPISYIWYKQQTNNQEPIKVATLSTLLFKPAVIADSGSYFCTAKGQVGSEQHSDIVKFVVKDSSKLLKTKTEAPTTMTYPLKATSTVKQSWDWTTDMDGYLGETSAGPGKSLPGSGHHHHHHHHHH

Human VSIG4-L-Fc [17] = target: T1, Human VSIG4-L-Fc; assay: BLI binning on hVSIG4-L-Fc, competitor 12A08 first;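 note: normalized to binding of second antibody without first competitor antibody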
Human VSIG4-L-Fc [18] = target: T1, Human VSIG4-L-Fc; assay: BLI binning on hVSIG4-L-Fc, competitor 15C04 first;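 note: normalized to binding of second antibody without first competitor antibody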
Human VSIG4-L-Fc [19] = target: T1, Human VSIG4-L-Fc; assay: BLI binning on hVSIG4-L-Fc, competitor 12A12 first;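 note: normalized to binding of second antibody without first competitor antibody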
Human VSIG4-L-Fc [20] = target: T1, Human VSIG4-L-Fc; assay: BLI binning on hVSIG4-L-Fc, competitor 16E03 first;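 note: normalized to binding of second antibody without first competitor antibody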
Human VSIG4-L-Fc [21] = target: T1, Human VSIG4-L-Fc; assay: ligand competition ELISA (FJB), blocked ligand iC3b
[22] = target: T2, Cynomolgus Monkey VSIG4-L-His; assay: BLI (Octet), IgG on AHC sensor, antigen 100 nM
Human VSIG4-S-His = target: T7, Human VSIG4-S-His (human, UniProt Q9Y279 20-283); assay: BLI (Octet), IgG on AHC sensor, antigen 100 nM
T7 construct: short isoform ECD with His tag; also called hVSIG4-S; VISG4-S-His
T7 sequence: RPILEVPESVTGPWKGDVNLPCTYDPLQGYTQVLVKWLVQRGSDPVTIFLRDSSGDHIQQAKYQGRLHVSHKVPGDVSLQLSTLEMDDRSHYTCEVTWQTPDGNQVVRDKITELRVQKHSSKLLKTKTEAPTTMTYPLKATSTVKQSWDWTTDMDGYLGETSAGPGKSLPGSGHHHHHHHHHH

Human VSIG4-L-His [23] = target: T6, Human VSIG4-L-His; assay: BLI (Octet), IgG on AHC sensor, antigen 100 nM
[24] = target: T2, Cynomolgus Monkey VSIG4-L-His; assay: BLI, IgG on AHC sensor, antigen 100 nM
Human VSIG4-L-His [25] = target: T6, Human VSIG4-L-His; assay: BLI, IgG on AHC sensor, antigen 100 nM

T4 sequence (chain, as listed by the source limits assumed): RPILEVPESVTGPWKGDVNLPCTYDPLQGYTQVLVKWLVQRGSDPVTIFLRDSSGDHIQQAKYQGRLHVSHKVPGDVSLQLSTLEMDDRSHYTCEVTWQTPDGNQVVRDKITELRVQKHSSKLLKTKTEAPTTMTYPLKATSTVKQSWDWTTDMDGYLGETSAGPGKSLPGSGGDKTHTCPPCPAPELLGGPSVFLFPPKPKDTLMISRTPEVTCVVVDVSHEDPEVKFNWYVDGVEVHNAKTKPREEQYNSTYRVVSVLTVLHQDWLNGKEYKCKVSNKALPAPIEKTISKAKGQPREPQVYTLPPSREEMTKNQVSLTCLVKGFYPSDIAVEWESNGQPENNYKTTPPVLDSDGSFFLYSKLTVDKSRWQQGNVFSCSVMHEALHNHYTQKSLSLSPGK

ELISA OD450 (Human VSIG4-L-Fc [1]): 4.44 OD450
ELISA OD450 [2]: 4.43 OD450
ELISA OD450 (Mouse VSIG4-His): 0.056 OD450
ELISA OD450 (Human VSIG4-S-Fc): 3.37 OD450
EC50 [3]: 6.8 nM
normalized maximum binding nm shift (Human VSIG4-L-Fc [4]): 0.69 normalized
normalized maximum binding nm shift (Human VSIG4-L-Fc [5]): 0.7 normalized
normalized maximum binding nm shift (Human VSIG4-L-Fc [6]): 0.76 normalized
Percent Blocking C3b (Human VSIG4-L-Fc [7]): 96%
normalized maximum binding nm shift (Human VSIG4-L-Fc [8]): 0.72 normalized
Binding (200 nM) MFI [9]: 121000 MFI
normalized maximum binding nm shift (Human VSIG4-L-Fc [10]): 0.89 normalized
Binding (200 nM) Fold-Over-Parental [11]: 357 fold
normalized maximum binding nm shift (Human VSIG4-L-Fc [12]): 0.44 normalized
IC50 (Human VSIG4-L-Fc [13]): 1 nM
Percent Blocking iC3b (Human VSIG4-L-Fc [14]): 98%
Kd [15]: 3.9 nM
Kd (Human VSIG4-L-His [16]): 6.7 nM
normalized maximum binding nm shift (Human VSIG4-L-Fc [17]): 0.1 normalized
normalized maximum binding nm shift (Human VSIG4-L-Fc [18]): 0.94 normalized
normalized maximum binding nm shift (Human VSIG4-L-Fc [19]): 0.78 normalized
normalized maximum binding nm shift (Human VSIG4-L-Fc [20]): 0.1 normalized
IC50 (Human VSIG4-L-Fc [21]): 0.4 nM
Kd [22]: 15.7 nM
Kd (Human VSIG4-S-His): 18.8 nM
Kd (Human VSIG4-L-His [23]): 20.6 nM
B1: 12A08 mouse/human chimeric IgG4 (S228P) kappa (antibody, V domains shown)
VH: EVMLVESGGGLVKPGGSLKLSCAASGFTFDDFYMYWVRQTPEKRLEWVASISDGGTYTYYPDSVKGRFTISRDNAKNTLYLQLSSLKSEDTAMYYCARGVDKYYYAMDYWGQGTSVTVSS
VL: QILLTQSPAIMSASPGEKVTITCSASSSVSYMHWFQQKPGTSPKLWIYSTSNLASGVPARFSGSGSGTSYSLTISRMEAEDAATYYCQQRSSYPLTFGAGTKLELKR

ELISA OD450 (Human VSIG4-L-Fc [1]): 4.44 OD450
ELISA OD450 [2]: 4.5 OD450
ELISA OD450 (Mouse VSIG4-His): 0.048 OD450
ELISA OD450 (Human VSIG4-S-Fc): 2.04 OD450
EC50 [3]: 1 nM
normalized maximum binding nm shift (Human VSIG4-L-Fc [4]): 0.65 normalized
normalized maximum binding nm shift (Human VSIG4-L-Fc [5]): 0.69 normalized
normalized maximum binding nm shift (Human VSIG4-L-Fc [6]): 0.77 normalized
Percent Blocking C3b (Human VSIG4-L-Fc [7]): 33%
normalized maximum binding nm shift (Human VSIG4-L-Fc [8]): 0.74 normalized
Binding (200 nM) MFI [9]: 14700 MFI
normalized maximum binding nm shift (Human VSIG4-L-Fc [10]): 0.88 normalized
Binding (200 nM) Fold-Over-Parental [11]: 50 fold
normalized maximum binding nm shift (Human VSIG4-L-Fc [12]): 0.15 normalized
IC50 (Human VSIG4-L-Fc [13]): 0.7 nM
Percent Blocking iC3b (Human VSIG4-L-Fc [14]): 72%
Kd [15]: 1.3 nM
Kd (Human VSIG4-L-His [16]): 66.1 nM
normalized maximum binding nm shift (Human VSIG4-L-Fc [17]): 0 normalized
normalized maximum binding nm shift (Human VSIG4-L-Fc [18]): 0.89 normalized
KD relative to parental chimera [24]: 1 fold
KD relative to parental chimera (Human VSIG4-L-His [25]): 1 fold
normalized maximum binding nm shift (Human VSIG4-L-Fc [19]): 0.25 normalized
normalized maximum binding nm shift (Human VSIG4-L-Fc [20]): 0.1 normalized
IC50 (Human VSIG4-L-Fc [21]): 3.6 nM
Kd [22]: 37.6 nM
Kd (Human VSIG4-S-His): 75.3 nM
Kd (Human VSIG4-L-His [23]): 68.5 nM
B2: 16E10 mouse/human chimeric IgG4 (S228P) kappa (antibody, V domains shown)
VH: QVQLQQSGAELVRPGTSVKISCKASGYTFTNYWLGWVKQRPGHGLEWIGDIYPGGGYTNYNEKFKGKATLTADTSSSTAYMQLSSLTSEDSAVYFCAKFYYYGSSYYFDSWGQGTTLTVSS
VL: DIVLTQSPSSLSVSAGEKVTLSCKSSQSLLNSGNQENYLAWYQQKPGQPPKLLIYGASTRESGVPDRFTGSGSGTDFTLTISSVQAEDLAVYYCQNDHSYPLTFGAGTKLELKR

ELISA OD450 (Human VSIG4-L-Fc [1]): 4.43 OD450
ELISA OD450 [2]: 4.53 OD450
ELISA OD450 (Mouse VSIG4-His): 0.052 OD450
ELISA OD450 (Human VSIG4-S-Fc): 3.28 OD450
EC50 [3]: 8.9 nM
normalized maximum binding nm shift (Human VSIG4-L-Fc [4]): 0.68 normalized
normalized maximum binding nm shift (Human VSIG4-L-Fc [5]): 0.72 normalized
normalized maximum binding nm shift (Human VSIG4-L-Fc [6]): 0.08 normalized
Percent Blocking C3b (Human VSIG4-L-Fc [7]): 93%
normalized maximum binding nm shift (Human VSIG4-L-Fc [8]): 0.72 normalized
Binding (200 nM) MFI [9]: 53200 MFI
normalized maximum binding nm shift (Human VSIG4-L-Fc [10]): 0.81 normalized
Binding (200 nM) Fold-Over-Parental [11]: 73 fold
normalized maximum binding nm shift (Human VSIG4-L-Fc [12]): 0.92 normalized
IC50 (Human VSIG4-L-Fc [13]): 19.7 nM
Percent Blocking iC3b (Human VSIG4-L-Fc [14]): 94%
Kd [15]: 15.6 nM
Kd (Human VSIG4-L-His [16]): 5.4 nM
normalized maximum binding nm shift (Human VSIG4-L-Fc [17]): 0.8 normalized
normalized maximum binding nm shift (Human VSIG4-L-Fc [18]): 0.16 normalized
normalized maximum binding nm shift (Human VSIG4-L-Fc [19]): 0.82 normalized
normalized maximum binding nm shift (Human VSIG4-L-Fc [20]): 0.74 normalized
IC50 (Human VSIG4-L-Fc [21]): 17 nM
Kd [22]: 183 nM
Kd (Human VSIG4-L-His [23]): 25.4 nM
B3: 15C04 mouse/human chimeric IgG4 (S228P) kappa (antibody, V domains shown)
VH: QIQLQESGPSLVRPSQTLSLTCSVTGDSITSGYWNWIRKFPGDKLEYLGYISYSGFTYYNPSLKSRISITRDTSKNQYYLQLNSVTTEDTATYYCASSYYGSSLGFPYWGQGTLVTVSA
VL: DVVMTQTPLSLPVSLGDQASISCRSSQSLVHSNGNTYLHWYLQKPGQSPKLLIYKVSNRFSGVPDRFSGSGSGTDFTLKISRVEAEDLGVYFCSQSTHVPWTFGGGTKLEIKR
